{
  "source": "patent US11485776B2",
  "about": "“Antibodies against infectious diseases” (priority 2015, dated 2022)",
  "key": {"[1]": {"biological_target": "T1, binding of surface ENO1 of C. albicans to plasminogen (Candida albicans, UniProt P30575)", "T1 construct": "endogenous in cells; host or cells: C. albicans cells", "T1 sequence (P30575 whole entry)": "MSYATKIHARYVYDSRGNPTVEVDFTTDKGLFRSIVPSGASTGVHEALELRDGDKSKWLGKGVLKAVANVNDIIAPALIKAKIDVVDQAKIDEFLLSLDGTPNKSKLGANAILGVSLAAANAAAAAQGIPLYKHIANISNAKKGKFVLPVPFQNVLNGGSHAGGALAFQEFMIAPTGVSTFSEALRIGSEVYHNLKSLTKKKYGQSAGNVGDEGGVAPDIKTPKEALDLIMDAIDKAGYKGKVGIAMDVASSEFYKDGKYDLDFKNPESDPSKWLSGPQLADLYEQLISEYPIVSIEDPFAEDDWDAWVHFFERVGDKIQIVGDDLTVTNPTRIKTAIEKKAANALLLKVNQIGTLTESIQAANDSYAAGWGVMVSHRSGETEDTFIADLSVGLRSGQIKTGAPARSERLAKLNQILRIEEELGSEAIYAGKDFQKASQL", "assay": "Fibrin matrix-gel degradation analysis with C. albicans cells", "type": "cell-based", "details": "for Binding of CaENO1 to plasminogen: fibrin matrix-gel degradation analysis, C. albicans cells", "description": "The ability of CaS1 scFv to block the binding of CaENO1 with plasminogen was evaluated by fibrin matrix-gel degradation analysis. Various samples containing C. albicans only (1), C. albicans+1 ug of plasminogen (2) or C. albicans+10 ug of plasminogen (3) were spotted on the plate. Similar experiments were carried out except C. albicans were mixed first with 10 ug (4) or 100 ug (5) of CaS1 scFv, followed by the addition of 10 ug of plasminogen. C. albicans+CaS1 scFv without plasminogen (6) were spotted as a negative control.\nThe matrix gel was prepared for fibrinolysis activity detection^33. C. albicans (10^6 cells) were washed and incubated with or without CaS1scFv ([…]) at 37° C. for 1 hr. After incubation, cells were washed and incubated with plasminogen (10 μg) for 30 min. The mixtures were washed with PBS to remove free plasminogen. The resulting cell pellets were placed in a matrix gel that contained 1.25% low-melting-temperature agarose, thrombin (0.05 U/ml, Sigma) and fibrinogen (2 mg/ml, Sigma). The gel was incubated in a humidified chamber at 37° C. for 10-14 hrs until the appearance of clear spots indicated the presence of fibrinolysis activity.\nIt is well known that surface ENO1 act as a plasminogen receptor 32, binding to plasminogen will activate it to plasmin and leading to the degradation of the fibrinogen (extracellular matrix) containing in the gel. We performed matrix-gel studies to test the possible biological significance of CaENO1-plasminogen association and the effect of CaS1 scFv on this binding was observed.\nThe inhibition of the degradation of the fibrinogen in the gel is obvious."}, "[2]": {"biological_target": "T2, ENO1 protein expressed in cell lysates of C. albicans (Candida albicans, UniProt P30575)", "T2 construct": "endogenous in cells; host or cells: C. albicans SC 5314 and clinical isolates CA6-17, CA7-26, CA7-3, CA10-50, CA7-30, CA10-65", "T2 sequence (P30575 whole entry)": "as above", "assay": "Western blot on total cell lysate of C. albicans", "type": "binding", "excerpt": "(A) The total cell lysates of 5 Candida spp. were visualized on SDS-PAGE (left). After transferred onto the NC membranes, they were probed with purified anti-CaENO1 from 7th immunized chicken (1:3,000) (middle), or with CaS1 scFv (right) as described in material and methods. Lanes 1-6 in (A) contained the total cell lysates of C. albicans, C. krusei, C. tropicalis, C. parapsilosis and C. glabrate and purified recombinant CaENO1, respectively. […] (C) Total cell lysate from FLU^R and FLU^s and C. tropicalis (lanes 1-5 represent CT6-29, CT11-52, CT6-50, CT12-54, BCRC20520, respectively) by SDS-PAGE (left) and probed with CaS1 scFv by Western blot (right). (D) The purified ENO1 proteins of C. albicans, S. pneumonia, S. aureus, mouse and human were visualized on SDS-PAGE (left). After transferred onto the NC membranes, they were probed with purified CaS1 scFv (right) as described. Lane M contained protein markers. […]\nThis CaS1 scFv was evaluated for its binding activity to different species of Candida. Five common strains of Candida were obtained, total lysate of five species Candida were analyzed on SDS-PAGE (FIG. 6A left) and subsequent Western blot."}, "[3]": {"biological_target": "T3, mENO1 (Mus musculus, UniProt P17182)", "T3 construct": "His; made in house; host or cells: E. coli BL21 (by 'in the same way')", "T3 sequence (P17182 whole entry)": "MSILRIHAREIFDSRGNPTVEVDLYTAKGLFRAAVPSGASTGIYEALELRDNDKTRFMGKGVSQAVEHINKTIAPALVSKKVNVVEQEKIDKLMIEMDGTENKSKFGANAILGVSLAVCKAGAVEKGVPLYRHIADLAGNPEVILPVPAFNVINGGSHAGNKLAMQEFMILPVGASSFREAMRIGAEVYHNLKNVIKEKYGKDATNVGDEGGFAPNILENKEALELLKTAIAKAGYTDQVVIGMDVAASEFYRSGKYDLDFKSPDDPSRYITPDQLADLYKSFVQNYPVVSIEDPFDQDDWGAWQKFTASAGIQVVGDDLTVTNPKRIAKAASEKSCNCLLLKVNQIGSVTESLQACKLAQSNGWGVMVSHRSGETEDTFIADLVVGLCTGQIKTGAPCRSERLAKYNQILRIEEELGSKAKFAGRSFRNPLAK", "assay": "Western blot on purified mouse ENO1 protein", "type": "binding", "excerpt": "Lane M contained protein markers.\nThe ImageQuant LAS4500 was used for ECL intensity detection."}, "[4]": {"test_system": "binding of C. albicans cells to human oral keratinocyte OECM-1 cells", "assay": "Adhesion assay of C. albicans to OECM-1 cells", "type": "cell-based", "details": "50 μg and 100 μg, vs PBS control", "description": "C. albicans were mixed with 1×PBS, 50 ug or 100 ug CaS1 scFv at 37° C. for 1 hr and added into OECM-1 cells in culture wells as described in the text. After being washed, cells attached to C. albicans were detected by adding HRP-conjugated anti-C. albicans antibodies.\nCell adhesion assay was performed using human oral epidermal cells (OECM-1) (XXX). C. albicans (1×10^6 cfu) were pre-incubated with CaS1 scFv antibodies ([…]) at 37° C. for 1 hr. After incubation, the mixtures were two-fold diluted and added onto 10^4 OECM-1 cells cultured in 96-well plates. The plates were further incubated at 4° C. for 2 hrs. After being washed three times with 1×PBS, the plates were fixed with 10% formaldehyde. After being washed as above, the wells were blocked with skim milk for 1 hr. Thereafter, rabbit anti-C. albicans antibodies (1:3,000, Bethyl, USA) were added and incubated for another 1 hr, followed by adding the HRP-conjugated anti-rabbit antibodies (1:3,000, Bethyl, USA). Washings as above were always carried out between steps. TMB was used for color development, which was stopped with 1 N HCl. The intensity of the color was measured at 450 nm on an ELISA plate reader.\nC. albicans cells (1×10^6) were treated with 50 μg and 100 μg of scFv CaS1, respectively, and the resulting mixtures were added to human oral keratinocyte OECM-1 cells to test the binding ability of C. albicans cells to OECM-1 cells."}},
  "note": "“Also recorded” adds a separate entry of the source.",
  "data": [
    {"molecule": "CaS1 scFv: anti-CaENO1 scFv monoclonal antibody from chicken phage library; light chain SEQ ID NO:11, heavy chain SEQ ID NO:12 (antibody, V domains shown, scFv linker; amino acid sequence comprised in a heavy chain of an anti-CaENO1 scFv monoclonal antibody (CaS1); amino acid sequence comprised in a light chain of an anti-CaENO1 scFv monoclonal antibody (CaS1)) VH: TVTLDESGGGLQTPRGALSLVCKASGFTFIDYGMQWVRQAPGKGLEWVAGIGSSGSSTNYGAAVKGRATISRDDGQSTVRLQLNNLRAEDTGTYYCAKSAGGYCVNGAGCNGGSIDAWGHGTEVIVSS VL: ALTQPSSVSANLGGTVKITCSGGSGSYGWYQQKSPGSAPVTVIYSNNQRPSNIPSRFSGSPSGSTGTLTITGVQADDEAVYFCGSRDSSYVGVFGAGTTLTVL", "values": [
      {"measurement": "Fibrinolytic activity of C. albicans with plasminogen", "setting": "[1]; C. albicans pre-incubated with 10 ug or 100 ug, then 10 ug plasminogen", "result": "significantly inhibited"},
      {"measurement": "Fibrinolysis activity in the absence of plasminogen", "setting": "[1]; C. albicans+CaS1 scFv without plasminogen", "result": "no fibrinolysis activity"},
      {"measurement": "Binding of CaENO1 to plasminogen", "setting": "[1]", "result": "significantly reduced"},
      {"measurement": "Binding of CaENO1 to plasminogen", "setting": "[1]; listed as CaS1", "result": "significantly inhibited"},
      {"measurement": "Binding to fluconazole resistance and susceptible C. albicans from clinic (Western blot)", "setting": "[2]", "result": "binds; also recorded: can bind"},
      {"measurement": "Binding to ENO1 in total cell lysate of C. albicans (Western blot)", "setting": "[2]; C. albicans SC 5314 lysate", "result": "specifically recognized; also recorded: reacted"},
      {"measurement": "Binding to purified mENO1 (Western blot)", "setting": "[3]", "result": "very little; also recorded: weak cross reactivity"},
      {"measurement": "Binding of C. albicans cells to OECM-1 cells", "setting": "[4]; listed as CaS1", "result": "inhibited its adherence"},
      {"measurement": "Binding of C. albicans cells to OECM-1 cells", "setting": "[4]; listed as CaS1 ScFv", "result": "inhibited"},
      {"measurement": "Binding of C. albicans cells to OECM-1 cells", "setting": "[4]; listed as scFv CaS1", "result": "significantly reduced"}
    ]}
  ]
}
